{"source": "paper PMC7480041", "about": "(bioRxiv, 2020)", "molecular_target": "truncated recombinant SARS-CoV-2 nucleocapsid (N) protein, AA133–419 (SARS-CoV-2 (isolate USA-WA1/2020), UniProt P0DTC9)", "assay": "ELISA", "data": [{"binder": "mBG21 (antibody, V domains shown) VH: QIQLVQSGPELKKPGETVKISCKASGYTFTDYSMHWVKQAPGKGSKWMGWINTETGEPTYADDFKGRFAFSLETSASTAYLQINNLKNEDTATYFCALRRWGQGTLVTVSS VL: IVMTQTPKFLLVSAGDRVTITCKASQSVSNDVAWFQQKPGQSPKKLLIYFASNRYTGVPDRFTGSGYGTDFTFTITTVQAEDLAVYFCQQDYSSPWTFGGGTKLEIK", "values": [{"measurement": "corrected average ELISA signal", "value": 1.43}]}]}
